Numbered stars: 1 amine (or outer) side, 2 acyl side, 3 side chain; on linkers, the order of the positions; unused ones are H or OH. Bridge positions count the residues as written; N and C are the ends. Side chains are listed from the residue outwards. Ends that are not written are not given here. * marks the point of attachment. C20 diacid = O=C(O)CCCCCCCCCCCCCCCCCCC(=O)*; γGlu = O=C(O)[C@H](CCC(=O)[*:2])N[*:1]; AEEA = NCCOCCOCC(=O)O
T1: human calcitonin receptor (human, UniProt P30988 25-474)
T1 construct: whole, on cells; Assay used cell membranes of the transfected BHK cells; also called hCTR; hCT
T1 sequence (looked up): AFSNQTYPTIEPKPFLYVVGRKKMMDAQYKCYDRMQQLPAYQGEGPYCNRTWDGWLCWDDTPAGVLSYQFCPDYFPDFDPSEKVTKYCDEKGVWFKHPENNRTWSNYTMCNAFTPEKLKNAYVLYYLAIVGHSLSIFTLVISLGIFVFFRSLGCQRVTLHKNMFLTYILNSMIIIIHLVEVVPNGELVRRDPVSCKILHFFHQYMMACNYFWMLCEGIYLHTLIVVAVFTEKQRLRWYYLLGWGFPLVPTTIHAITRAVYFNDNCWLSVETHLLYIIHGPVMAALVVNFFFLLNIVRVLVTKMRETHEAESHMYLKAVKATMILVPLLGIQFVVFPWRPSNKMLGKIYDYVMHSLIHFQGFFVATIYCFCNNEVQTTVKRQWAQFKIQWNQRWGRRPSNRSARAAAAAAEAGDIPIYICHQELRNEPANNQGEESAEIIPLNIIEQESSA

T2: human amylin receptor (amylin 3(a) receptor: human calcitonin receptor with RAMP-3) (human, UniProt P30988 25-474; O60896 24-148)
T2 construct: whole, on cells; Assay used cell membranes of the Amylin 3(a)/CRE-luc BHK cells, not intact cells; also called hAmylin-R; hAmylinR
T2 sequence (looked up) 1: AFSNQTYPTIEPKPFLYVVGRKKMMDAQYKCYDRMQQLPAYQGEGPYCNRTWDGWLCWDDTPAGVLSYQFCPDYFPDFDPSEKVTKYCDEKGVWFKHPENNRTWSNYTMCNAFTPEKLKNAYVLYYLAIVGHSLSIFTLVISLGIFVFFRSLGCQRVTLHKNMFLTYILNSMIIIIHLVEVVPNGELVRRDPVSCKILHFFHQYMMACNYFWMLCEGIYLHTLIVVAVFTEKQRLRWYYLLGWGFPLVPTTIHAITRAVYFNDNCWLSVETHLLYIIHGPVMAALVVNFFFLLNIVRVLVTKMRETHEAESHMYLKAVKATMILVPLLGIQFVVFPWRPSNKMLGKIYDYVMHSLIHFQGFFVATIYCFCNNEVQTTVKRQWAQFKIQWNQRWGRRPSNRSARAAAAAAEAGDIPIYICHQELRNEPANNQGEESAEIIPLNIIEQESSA
T2 sequence (looked up) 2: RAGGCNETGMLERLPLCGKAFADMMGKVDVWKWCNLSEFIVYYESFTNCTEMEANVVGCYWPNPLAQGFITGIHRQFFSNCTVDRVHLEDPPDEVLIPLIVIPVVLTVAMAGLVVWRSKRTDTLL

T3: human calcitonin receptor (human, UniProt P30988 25-474)
T3 construct: whole, on cells; Assay used cell membranes, not intact cells; also called hCTR; hCT
T3 sequence (looked up): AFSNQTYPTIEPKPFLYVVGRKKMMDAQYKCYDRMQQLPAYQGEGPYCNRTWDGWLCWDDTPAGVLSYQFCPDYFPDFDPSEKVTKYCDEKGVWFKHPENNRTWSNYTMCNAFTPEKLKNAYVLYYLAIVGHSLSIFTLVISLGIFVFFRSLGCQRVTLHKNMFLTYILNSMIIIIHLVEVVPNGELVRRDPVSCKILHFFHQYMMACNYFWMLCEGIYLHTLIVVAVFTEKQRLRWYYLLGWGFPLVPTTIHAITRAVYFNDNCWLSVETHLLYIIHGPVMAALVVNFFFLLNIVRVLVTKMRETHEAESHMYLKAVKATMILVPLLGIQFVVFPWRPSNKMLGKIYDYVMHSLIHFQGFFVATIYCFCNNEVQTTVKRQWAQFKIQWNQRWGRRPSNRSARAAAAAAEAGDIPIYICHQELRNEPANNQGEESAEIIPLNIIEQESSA


What was measured:
[1] = biological target: T1, human calcitonin receptor; test: SPA radioligand competition (125I-calcitonin), membranes of BHK cells with human calcitonin receptor
How it was run: (§1)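 BHK hCTR membranes 35 ng/μL + SPA beads 0.05 mg/well; buffer 50 mM Hepes pH 7.4, 1 mM CaCl2, 5 mM MgCl₂, 0.1% OA, 0.02% Tween20. 120 min, 25° C., shaking. Scintillation count; IC50 by one-site binding competition.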

[2] = biological target: T2, human amylin receptor (amylin 3(a) …); test: SPA competition with 125I-rat amylin on membranes of BHK cells with human calcitonin receptor and RAMP-3 (Assay V)
How it was run: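 Membranes from BHK Amylin 3(a)/CRE-luc cells (35 ng/μL final) were mixed with SPA beads and test compounds in 50 mM Hepes pH 7.4 with 1 mM CaCl2, 5 mM MgCl₂, 0.1% OA and 0.02% Tween20. Incubation ran 120 min at 25° C with shaking; IC₅₀ came from one-site competition fitting.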

[3] = biological target: T3, human calcitonin receptor; test: ratio IC50 hCTR / IC50 hAmylin-R (reference: human amylin receptor), SPA competition assays
How it was run: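 Scintillation proximity competition binding on cell membranes at 35 ng/μL with SPA beads, in 50 mM Hepes pH 7.4, 1 mM CaCl2, 5 mM MgCl₂, 0.1% OA, 0.02% Tween20. Incubated 120 min at 25° C with shaking. IC₅₀ from one-site competition fit.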

[4] = biological target: T3, human calcitonin receptor; test: SPA competition with 125I-calcitonin on membranes of BHK cells with human calcitonin receptor (Assay VII)
How it was run: as §1

Row | Binder | IC50 [1] [nM] | other results
1 | K([AEEA-γGlu-C20 diacid])CNTATCATQRLANFLRHSSPNFGAIPPSTPVGSNTY-NH2 (disulfide 2-7, Synthetic analogue; also called compound 53) | 5.38 | –
2 | K([AEEA-γGlu-C20 diacid])CNTATCATQRLANFLRHSSPNFGAIPSPTNVGPNTY-NH2 (disulfide 2-7; N-terminus assumed; SMILES CC[C@H](C)[C@H](NC(=O)[C@H](C)NC(=O)CNC(=O)[C@H](Cc1ccccc1)NC(=O)[C@H](CC(N)=O)NC(=O)[C@@H]1CCCN1C(=O)[C@H](CO)NC(=O)[C@H](CO)NC(=O)[C@H](Cc1c[nH]cn1)NC(=O)[C@H](CCCNC(=N)N)NC(=O)[C@H](CC(C)C)NC(=O)[C@H](Cc1ccccc1)NC(=O)[C@H](CC(N)=O)NC(=O)[C@H](C)NC(=O)[C@H](CC(C)C)NC(=O)[C@H](CCCNC(=N)N)NC(=O)[C@H](CCC(N)=O)NC(=O)[C@@H](NC(=O)[C@H](C)NC(=O)[C@@H]1CSSC[C@H](NC(=O)[C@@H](N)CCCCNC(=O)COCCOCCNC(=O)CC[C@H](NC(=O)CCCCCCCCCCCCCCCCCCC(=O)O)C(=O)O)C(=O)N[C@@H](CC(N)=O)C(=O)N[C@@H]([C@@H](C)O)C(=O)N[C@@H](C)C(=O)N[C@@H]([C@@H](C)O)C(=O)N1)[C@@H](C)O)C(=O)N1CCC[C@H]1C(=O)N[C@@H](CO)C(=O)N1CCC[C@H]1C(=O)N[C@H](C(=O)N[C@@H](CC(N)=O)C(=O)N[C@H](C(=O)NCC(=O)N1CCC[C@H]1C(=O)N[C@@H](CC(N)=O)C(=O)N[C@H](C(=O)N[C@@H](Cc1ccc(O)cc1)C(N)=O)[C@@H](C)O)C(C)C)[C@@H](C)O, Synthetic analogue; also called compound 56) | 2.09 | –
3 | K([AEEA-γGlu-C20 diacid])CNTATCATQRLANFLRHSSPNFGAIPPSTNVGPNTY-NH2 (disulfide 2-7; N-terminus assumed; SMILES CC[C@H](C)[C@H](NC(=O)[C@H](C)NC(=O)CNC(=O)[C@H](Cc1ccccc1)NC(=O)[C@H](CC(N)=O)NC(=O)[C@@H]1CCCN1C(=O)[C@H](CO)NC(=O)[C@H](CO)NC(=O)[C@H](Cc1c[nH]cn1)NC(=O)[C@H](CCCNC(=N)N)NC(=O)[C@H](CC(C)C)NC(=O)[C@H](Cc1ccccc1)NC(=O)[C@H](CC(N)=O)NC(=O)[C@H](C)NC(=O)[C@H](CC(C)C)NC(=O)[C@H](CCCNC(=N)N)NC(=O)[C@H](CCC(N)=O)NC(=O)[C@@H](NC(=O)[C@H](C)NC(=O)[C@@H]1CSSC[C@H](NC(=O)[C@@H](N)CCCCNC(=O)COCCOCCNC(=O)CC[C@H](NC(=O)CCCCCCCCCCCCCCCCCCC(=O)O)C(=O)O)C(=O)N[C@@H](CC(N)=O)C(=O)N[C@@H]([C@@H](C)O)C(=O)N[C@@H](C)C(=O)N[C@@H]([C@@H](C)O)C(=O)N1)[C@@H](C)O)C(=O)N1CCC[C@H]1C(=O)N1CCC[C@H]1C(=O)N[C@@H](CO)C(=O)N[C@H](C(=O)N[C@@H](CC(N)=O)C(=O)N[C@H](C(=O)NCC(=O)N1CCC[C@H]1C(=O)N[C@@H](CC(N)=O)C(=O)N[C@H](C(=O)N[C@@H](Cc1ccc(O)cc1)C(N)=O)[C@@H](C)O)C(C)C)[C@@H](C)O, Synthetic analogue; also called compound 55) | 2.17 | –
4 | K([AEEA-γGlu-C20 diacid])CNTATCATQRLANFLRHSSPNFGAIPSSTPVGSHTY-NH2 (disulfide 2-7; N-terminus assumed; SMILES CC[C@H](C)[C@H](NC(=O)[C@H](C)NC(=O)CNC(=O)[C@H](Cc1ccccc1)NC(=O)[C@H](CC(N)=O)NC(=O)[C@@H]1CCCN1C(=O)[C@H](CO)NC(=O)[C@H](CO)NC(=O)[C@H](Cc1c[nH]cn1)NC(=O)[C@H](CCCNC(=N)N)NC(=O)[C@H](CC(C)C)NC(=O)[C@H](Cc1ccccc1)NC(=O)[C@H](CC(N)=O)NC(=O)[C@H](C)NC(=O)[C@H](CC(C)C)NC(=O)[C@H](CCCNC(=N)N)NC(=O)[C@H](CCC(N)=O)NC(=O)[C@@H](NC(=O)[C@H](C)NC(=O)[C@@H]1CSSC[C@H](NC(=O)[C@@H](N)CCCCNC(=O)COCCOCCNC(=O)CC[C@H](NC(=O)CCCCCCCCCCCCCCCCCCC(=O)O)C(=O)O)C(=O)N[C@@H](CC(N)=O)C(=O)N[C@@H]([C@@H](C)O)C(=O)N[C@@H](C)C(=O)N[C@@H]([C@@H](C)O)C(=O)N1)[C@@H](C)O)C(=O)N1CCC[C@H]1C(=O)N[C@@H](CO)C(=O)N[C@@H](CO)C(=O)N[C@H](C(=O)N1CCC[C@H]1C(=O)N[C@H](C(=O)NCC(=O)N[C@@H](CO)C(=O)N[C@@H](Cc1c[nH]cn1)C(=O)N[C@H](C(=O)N[C@@H](Cc1ccc(O)cc1)C(N)=O)[C@@H](C)O)C(C)C)[C@@H](C)O, Synthetic analogue; also called compound 57) | 15.3 | –
5 | K([AEEA-γGlu-C20 diacid])CNTATCATQRLANFLRHSSPNFGAIPSPTPVGSNTY-NH2 (disulfide 2-7; N-terminus assumed; SMILES CC[C@H](C)[C@H](NC(=O)[C@H](C)NC(=O)CNC(=O)[C@H](Cc1ccccc1)NC(=O)[C@H](CC(N)=O)NC(=O)[C@@H]1CCCN1C(=O)[C@H](CO)NC(=O)[C@H](CO)NC(=O)[C@H](Cc1c[nH]cn1)NC(=O)[C@H](CCCNC(=N)N)NC(=O)[C@H](CC(C)C)NC(=O)[C@H](Cc1ccccc1)NC(=O)[C@H](CC(N)=O)NC(=O)[C@H](C)NC(=O)[C@H](CC(C)C)NC(=O)[C@H](CCCNC(=N)N)NC(=O)[C@H](CCC(N)=O)NC(=O)[C@@H](NC(=O)[C@H](C)NC(=O)[C@@H]1CSSC[C@H](NC(=O)[C@@H](N)CCCCNC(=O)COCCOCCNC(=O)CC[C@H](NC(=O)CCCCCCCCCCCCCCCCCCC(=O)O)C(=O)O)C(=O)N[C@@H](CC(N)=O)C(=O)N[C@@H]([C@@H](C)O)C(=O)N[C@@H](C)C(=O)N[C@@H]([C@@H](C)O)C(=O)N1)[C@@H](C)O)C(=O)N1CCC[C@H]1C(=O)N[C@@H](CO)C(=O)N1CCC[C@H]1C(=O)N[C@H](C(=O)N1CCC[C@H]1C(=O)N[C@H](C(=O)NCC(=O)N[C@@H](CO)C(=O)N[C@@H](CC(N)=O)C(=O)N[C@H](C(=O)N[C@@H](Cc1ccc(O)cc1)C(N)=O)[C@@H](C)O)C(C)C)[C@@H](C)O, Synthetic analogue; also called compound 54) | 4.38 | –
6 | {C20 diacid-γGlu}-GRCNTATCATQRLAHFLRHSSPNFGAIPSSTNVGSNTY-NH2 (disulfide 3-8; SMILES CC[C@H](C)[C@H](NC(=O)[C@H](C)NC(=O)CNC(=O)[C@H](Cc1ccccc1)NC(=O)[C@H](CC(N)=O)NC(=O)[C@@H]1CCCN1C(=O)[C@H](CO)NC(=O)[C@H](CO)NC(=O)[C@H](Cc1c[nH]cn1)NC(=O)[C@H](CCCNC(=N)N)NC(=O)[C@H](CC(C)C)NC(=O)[C@H](Cc1ccccc1)NC(=O)[C@H](Cc1c[nH]cn1)NC(=O)[C@H](C)NC(=O)[C@H](CC(C)C)NC(=O)[C@H](CCCNC(=N)N)NC(=O)[C@H](CCC(N)=O)NC(=O)[C@@H](NC(=O)[C@H](C)NC(=O)[C@@H]1CSSC[C@H](NC(=O)[C@H](CCCNC(=N)N)NC(=O)CNC(=O)CC[C@H](NC(=O)CCCCCCCCCCCCCCCCCCC(=O)O)C(=O)O)C(=O)N[C@@H](CC(N)=O)C(=O)N[C@@H]([C@@H](C)O)C(=O)N[C@@H](C)C(=O)N[C@@H]([C@@H](C)O)C(=O)N1)[C@@H](C)O)C(=O)N1CCC[C@H]1C(=O)N[C@@H](CO)C(=O)N[C@@H](CO)C(=O)N[C@H](C(=O)N[C@@H](CC(N)=O)C(=O)N[C@H](C(=O)NCC(=O)N[C@@H](CO)C(=O)N[C@@H](CC(N)=O)C(=O)N[C@H](C(=O)N[C@@H](Cc1ccc(O)cc1)C(N)=O)[C@@H](C)O)C(C)C)[C@@H](C)O, also called compound 99) | – | IC50 [2]: 0.348 nM; Ratio hCT/hAmylin binding [3]: 100; IC50 [4]: 35 nM
